Measured values: patent publication US20170327577A1, “METHODS OF CONSTRUCTING AMINO TERMINAL IMMUNOGLOBULIN FUSION PROTEINS AND COMPOSITIONS THEREOF” (The California Institute for Biomedical Research, priority 2014, published 2017)
One block for each substance: values may come before it.

Columns and labels:
[1] = biological target: GLP-2 receptor (UniProt O95838); test: cell-based or functional assay
[2] = biological target: T1, relaxin receptor (LGR7) (UniProt Q9HBX9); test: cell-based or functional assay
T1 sequence (looked up): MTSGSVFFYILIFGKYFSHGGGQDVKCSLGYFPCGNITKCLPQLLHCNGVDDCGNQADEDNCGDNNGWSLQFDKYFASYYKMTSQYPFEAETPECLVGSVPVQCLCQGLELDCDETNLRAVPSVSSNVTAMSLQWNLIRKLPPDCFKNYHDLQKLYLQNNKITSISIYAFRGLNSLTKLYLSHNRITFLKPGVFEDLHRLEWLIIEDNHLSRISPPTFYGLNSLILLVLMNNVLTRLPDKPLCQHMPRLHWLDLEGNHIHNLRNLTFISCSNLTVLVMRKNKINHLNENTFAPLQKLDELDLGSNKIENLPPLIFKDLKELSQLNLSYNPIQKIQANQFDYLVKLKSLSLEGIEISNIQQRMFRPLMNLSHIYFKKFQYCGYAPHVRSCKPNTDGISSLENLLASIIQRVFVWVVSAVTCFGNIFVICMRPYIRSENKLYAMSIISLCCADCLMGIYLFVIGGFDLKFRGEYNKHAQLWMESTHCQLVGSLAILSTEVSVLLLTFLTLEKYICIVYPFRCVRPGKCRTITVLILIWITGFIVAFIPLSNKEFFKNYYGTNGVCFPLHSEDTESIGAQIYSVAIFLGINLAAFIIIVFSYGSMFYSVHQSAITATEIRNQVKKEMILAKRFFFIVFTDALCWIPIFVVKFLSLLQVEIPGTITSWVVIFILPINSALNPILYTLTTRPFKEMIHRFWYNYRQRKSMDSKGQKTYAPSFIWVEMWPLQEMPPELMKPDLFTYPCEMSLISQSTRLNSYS

[3] = biological target: relaxin receptor (LGR8) (Homo sapiens, UniProt Q8WXD0); test: cell-based or functional assay
relaxin receptor (LGR8), sequence (Q8WXD0 whole entry): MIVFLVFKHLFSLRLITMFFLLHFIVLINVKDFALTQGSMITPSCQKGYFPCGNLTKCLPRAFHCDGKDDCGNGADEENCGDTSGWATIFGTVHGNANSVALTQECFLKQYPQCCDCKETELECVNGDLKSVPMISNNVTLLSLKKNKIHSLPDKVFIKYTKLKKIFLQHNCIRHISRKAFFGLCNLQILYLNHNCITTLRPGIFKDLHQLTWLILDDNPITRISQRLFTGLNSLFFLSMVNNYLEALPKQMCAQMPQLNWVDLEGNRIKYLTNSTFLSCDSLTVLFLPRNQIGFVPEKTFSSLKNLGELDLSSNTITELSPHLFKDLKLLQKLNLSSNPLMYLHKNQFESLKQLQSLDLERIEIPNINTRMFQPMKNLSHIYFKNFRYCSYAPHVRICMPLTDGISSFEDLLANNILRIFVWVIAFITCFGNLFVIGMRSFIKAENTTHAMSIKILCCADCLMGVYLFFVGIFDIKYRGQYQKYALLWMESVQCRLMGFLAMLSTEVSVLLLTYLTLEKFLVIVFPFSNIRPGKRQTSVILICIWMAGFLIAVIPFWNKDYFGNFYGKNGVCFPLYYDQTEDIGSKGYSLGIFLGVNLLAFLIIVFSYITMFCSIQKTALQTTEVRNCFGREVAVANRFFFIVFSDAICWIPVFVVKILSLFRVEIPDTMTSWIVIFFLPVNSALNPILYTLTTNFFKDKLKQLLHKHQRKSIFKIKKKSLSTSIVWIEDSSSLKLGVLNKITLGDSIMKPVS

[4] = biological target: GLP-1 receptor (UniProt P43220); test: cell-based or functional assay
[5] = biological target: glucagon receptor (UniProt P47871); test: cell-based or functional assay
[6] = biological target: leptin receptor (UniProt P48357); test: cell-based or functional assay
[7] = biological target: T2, GLP-2 receptor (GLP-2R) (Homo sapiens, UniProt O95838); test: GLP-2 receptor activation, CRE-luciferase reporter assay in HEK293 cells; assay type: cell-based; conditions: Example 18; HEK293 GLP-2R CRE-Luc, 24 hours
T2 sequence (O95838 1-553): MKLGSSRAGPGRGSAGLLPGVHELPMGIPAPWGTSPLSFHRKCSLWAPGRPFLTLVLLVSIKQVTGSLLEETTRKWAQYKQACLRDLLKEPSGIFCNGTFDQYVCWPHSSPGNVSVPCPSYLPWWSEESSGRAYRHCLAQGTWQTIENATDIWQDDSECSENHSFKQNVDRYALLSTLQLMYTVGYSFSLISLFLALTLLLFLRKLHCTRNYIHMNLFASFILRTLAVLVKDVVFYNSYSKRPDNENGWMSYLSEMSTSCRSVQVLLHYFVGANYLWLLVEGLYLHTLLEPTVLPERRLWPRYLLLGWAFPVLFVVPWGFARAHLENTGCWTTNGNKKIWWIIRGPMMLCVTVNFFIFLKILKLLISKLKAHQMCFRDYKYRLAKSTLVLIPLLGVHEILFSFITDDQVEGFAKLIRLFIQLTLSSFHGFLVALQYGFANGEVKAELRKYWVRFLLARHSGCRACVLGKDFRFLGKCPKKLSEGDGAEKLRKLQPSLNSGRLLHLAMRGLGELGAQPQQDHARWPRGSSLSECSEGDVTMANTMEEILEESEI

palivizumab(NH, CEXGGGGS)-relaxin2(single) and palivizumab light chain, sequence (heavy): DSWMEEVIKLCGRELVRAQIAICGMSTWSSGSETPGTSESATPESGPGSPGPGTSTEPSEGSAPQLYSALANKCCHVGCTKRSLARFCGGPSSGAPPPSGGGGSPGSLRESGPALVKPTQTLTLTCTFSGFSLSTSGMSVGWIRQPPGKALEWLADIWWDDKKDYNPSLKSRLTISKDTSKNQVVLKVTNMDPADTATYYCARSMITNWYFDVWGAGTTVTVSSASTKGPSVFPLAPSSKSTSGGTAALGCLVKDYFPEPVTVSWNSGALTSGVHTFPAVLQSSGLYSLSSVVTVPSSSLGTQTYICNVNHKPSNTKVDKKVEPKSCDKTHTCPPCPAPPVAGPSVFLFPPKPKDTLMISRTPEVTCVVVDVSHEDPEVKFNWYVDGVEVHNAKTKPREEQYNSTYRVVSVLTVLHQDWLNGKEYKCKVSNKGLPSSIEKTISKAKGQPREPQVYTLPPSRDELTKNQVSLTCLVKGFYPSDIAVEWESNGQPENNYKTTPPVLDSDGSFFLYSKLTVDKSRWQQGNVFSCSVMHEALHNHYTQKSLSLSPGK
palivizumab(NH, CEXGGGGS)-relaxin2(single) and palivizumab light chain, sequence (light): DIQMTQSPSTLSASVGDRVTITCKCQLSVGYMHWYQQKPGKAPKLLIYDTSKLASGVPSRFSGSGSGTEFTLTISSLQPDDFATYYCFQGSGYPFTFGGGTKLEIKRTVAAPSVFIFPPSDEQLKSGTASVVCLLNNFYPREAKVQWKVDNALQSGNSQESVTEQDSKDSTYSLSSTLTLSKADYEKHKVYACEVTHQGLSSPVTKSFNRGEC
palivizumab (NH, GGGGS3)-relaxin(18GS) and palivizumab light chain, sequence (heavy): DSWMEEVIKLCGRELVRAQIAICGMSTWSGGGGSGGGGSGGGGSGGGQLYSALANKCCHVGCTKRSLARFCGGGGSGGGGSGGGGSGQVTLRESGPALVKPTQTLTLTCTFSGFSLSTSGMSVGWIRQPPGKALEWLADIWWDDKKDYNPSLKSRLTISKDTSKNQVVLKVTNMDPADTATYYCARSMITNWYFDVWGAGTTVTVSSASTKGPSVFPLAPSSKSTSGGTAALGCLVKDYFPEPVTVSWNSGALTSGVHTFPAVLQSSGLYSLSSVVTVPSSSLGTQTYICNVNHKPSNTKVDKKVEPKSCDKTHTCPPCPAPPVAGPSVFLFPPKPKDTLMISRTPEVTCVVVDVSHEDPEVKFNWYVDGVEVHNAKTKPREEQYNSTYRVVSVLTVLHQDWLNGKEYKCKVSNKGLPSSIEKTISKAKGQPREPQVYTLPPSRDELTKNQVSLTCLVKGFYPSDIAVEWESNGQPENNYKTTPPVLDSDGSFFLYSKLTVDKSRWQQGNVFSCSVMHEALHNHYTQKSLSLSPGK
palivizumab (NH, GGGGS3)-relaxin(18GS) and palivizumab light chain, sequence (light): as the sequence (light) above
palivizumab(NH, CEXGGGGG)-relaxin2(GGGPRR) and palivizumab light chain, sequence (heavy): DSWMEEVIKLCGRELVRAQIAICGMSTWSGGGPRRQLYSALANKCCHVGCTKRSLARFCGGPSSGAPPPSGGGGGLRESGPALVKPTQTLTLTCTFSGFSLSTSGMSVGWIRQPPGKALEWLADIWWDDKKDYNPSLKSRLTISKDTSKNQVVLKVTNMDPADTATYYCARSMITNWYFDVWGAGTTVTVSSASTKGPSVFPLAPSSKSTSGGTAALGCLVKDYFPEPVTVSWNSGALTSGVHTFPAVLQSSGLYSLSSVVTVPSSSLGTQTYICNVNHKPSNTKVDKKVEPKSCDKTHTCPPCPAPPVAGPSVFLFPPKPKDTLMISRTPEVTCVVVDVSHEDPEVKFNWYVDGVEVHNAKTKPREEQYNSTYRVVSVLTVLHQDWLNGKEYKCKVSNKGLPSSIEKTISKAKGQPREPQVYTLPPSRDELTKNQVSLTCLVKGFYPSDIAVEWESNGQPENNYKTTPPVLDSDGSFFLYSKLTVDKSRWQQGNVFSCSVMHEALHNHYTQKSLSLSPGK
palivizumab(NH, CEXGGGGG)-relaxin2(GGGPRR) and palivizumab light chain, sequence (light): as the sequence (light) above
palivizumab(NH, CEXGGGGG)-relaxin2(30GS) and palivizumab light chain, sequence (heavy): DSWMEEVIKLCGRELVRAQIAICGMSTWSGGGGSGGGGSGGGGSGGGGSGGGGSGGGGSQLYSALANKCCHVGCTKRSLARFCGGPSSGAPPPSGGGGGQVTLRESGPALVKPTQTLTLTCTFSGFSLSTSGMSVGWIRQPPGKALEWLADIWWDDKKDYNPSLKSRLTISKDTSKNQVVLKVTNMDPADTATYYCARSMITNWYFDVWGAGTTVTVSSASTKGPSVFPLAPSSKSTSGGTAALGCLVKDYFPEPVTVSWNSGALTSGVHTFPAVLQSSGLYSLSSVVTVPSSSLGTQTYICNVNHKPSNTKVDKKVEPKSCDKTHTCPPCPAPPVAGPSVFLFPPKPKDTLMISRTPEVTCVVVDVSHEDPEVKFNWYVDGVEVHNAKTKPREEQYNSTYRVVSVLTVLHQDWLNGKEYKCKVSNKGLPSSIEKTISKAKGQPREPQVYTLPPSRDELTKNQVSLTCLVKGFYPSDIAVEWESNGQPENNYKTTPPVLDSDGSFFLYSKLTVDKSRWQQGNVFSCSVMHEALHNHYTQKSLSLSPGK
palivizumab(NH, CEXGGGGG)-relaxin2(30GS) and palivizumab light chain, sequence (light): as the sequence (light) above
palivizumab(NH, EAAAK)-relaxin2(GGGPRR) and palivizumab light chain, sequence (heavy): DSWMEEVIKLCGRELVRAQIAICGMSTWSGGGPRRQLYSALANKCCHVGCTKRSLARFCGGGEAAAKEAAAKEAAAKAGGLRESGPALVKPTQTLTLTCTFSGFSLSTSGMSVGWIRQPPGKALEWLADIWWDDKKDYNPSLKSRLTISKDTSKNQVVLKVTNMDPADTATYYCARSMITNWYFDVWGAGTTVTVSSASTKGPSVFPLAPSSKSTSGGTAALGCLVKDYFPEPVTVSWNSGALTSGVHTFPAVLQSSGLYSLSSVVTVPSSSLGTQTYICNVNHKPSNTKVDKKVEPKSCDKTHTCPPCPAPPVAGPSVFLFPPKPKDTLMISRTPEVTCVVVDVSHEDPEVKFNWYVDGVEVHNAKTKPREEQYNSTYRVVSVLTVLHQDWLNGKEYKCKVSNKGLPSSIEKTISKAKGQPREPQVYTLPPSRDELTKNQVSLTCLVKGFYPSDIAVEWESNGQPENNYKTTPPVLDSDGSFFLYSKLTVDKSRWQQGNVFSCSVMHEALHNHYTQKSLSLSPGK
palivizumab(NH, EAAAK)-relaxin2(GGGPRR) and palivizumab light chain, sequence (light): as the sequence (light) above
palivizumab fab(NH, CEXGGGGS)-relaxin2(single) and palivizumab light chain, sequence (heavy): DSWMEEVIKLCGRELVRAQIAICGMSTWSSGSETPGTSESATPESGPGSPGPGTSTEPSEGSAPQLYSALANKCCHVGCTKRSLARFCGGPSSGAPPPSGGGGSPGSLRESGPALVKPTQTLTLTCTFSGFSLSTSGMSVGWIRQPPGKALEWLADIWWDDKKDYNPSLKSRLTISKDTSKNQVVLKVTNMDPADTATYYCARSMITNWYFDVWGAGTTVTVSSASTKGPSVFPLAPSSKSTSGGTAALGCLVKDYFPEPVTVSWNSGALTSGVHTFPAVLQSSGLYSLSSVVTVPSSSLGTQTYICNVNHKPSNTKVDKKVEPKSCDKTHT
palivizumab fab(NH, CEXGGGGS)-relaxin2(single) and palivizumab light chain, sequence (light): as the sequence (light) above
palivizumab fab(NH, GGGGS3)-relaxin2(9GS) and palivizumab light chain, sequence (heavy): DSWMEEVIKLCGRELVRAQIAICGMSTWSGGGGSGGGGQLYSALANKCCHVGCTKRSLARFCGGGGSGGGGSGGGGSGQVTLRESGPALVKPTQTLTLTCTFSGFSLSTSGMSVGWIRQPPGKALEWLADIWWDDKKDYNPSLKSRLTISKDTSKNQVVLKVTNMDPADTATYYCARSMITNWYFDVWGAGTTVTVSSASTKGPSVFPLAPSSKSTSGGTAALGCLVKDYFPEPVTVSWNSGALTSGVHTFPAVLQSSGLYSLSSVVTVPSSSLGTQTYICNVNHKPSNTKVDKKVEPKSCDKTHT
palivizumab fab(NH, GGGGS3)-relaxin2(9GS) and palivizumab light chain, sequence (light): as the sequence (light) above

EC50, CRE-luciferase reporter in HEK293 cells [1]: 0.069 nM
Substance: palivizumab(NH, EAAAK)-GLP2 and palivizumab(L)

EC50, CRE-luciferase reporter in HEK293 cells [2]: 3.4 nM
Substance: palivizumab(NH, EAAAK)-relaxin2(GGGPRR) and palivizumab light chain

EC50, CRE-luciferase reporter in HEK293 cells [2]: 0.0121 nM
EC50, CRE-luciferase reporter in HEK293 cells (FIG. 13) [2]: 0.012 nM
EC50, CRE-luciferase reporter in HEK293 cells (FIG. 23) [2]: 0.014 nM
EC50, CRE-luciferase reporter in HEK293 cells (FIG. 13) [3]: 11.2 nM
EC50, CRE-luciferase reporter in HEK293 cells (FIG. 23) [3]: 11.2 nM
Substance: relaxin-2 (from UniProt P04090 25-185) (ligand)

EC50, CRE-luciferase reporter in HEK293 cells [2]: 0.24 nM
Substance: palivizumab (NH, GGGGS3)-relaxin2(9GS) and palivizumab light chain

Substance: palivizumab fab(NH, CEXGGGGS)-relaxin2(single) and palivizumab light chain
EC50, CRE-luciferase reporter in HEK293 cells [2]: 47.3 nM

Substance: palivizumab(NH, CEXGGGGS)-GLP2 and palivizumab(L)
EC50, CRE-luciferase reporter in HEK293 cells [1]: 0.133 nM

Substance: palivizumab(NH, CEXGGGGG)-relaxin2(GGGPRR) and palivizumab light chain
EC50, CRE-luciferase reporter in HEK293 cells [2]: 2 nM

EC50, CRE-luciferase reporter in HEK293 cells [2]: 1.3 nM
Substance: palivizumab (NH, GGGGS3)-relaxin(18GS) and palivizumab light chain

Substance: palivizumab(NH, CEXGGGGG)-relaxin2(30GS) and palivizumab light chain
EC50, CRE-luciferase reporter in HEK293 cells [2]: 0.208 nM

Substance: palivizumab(NL, EAAAK)-glucagon(2G) and pPalivizumab(NH, GGGGS1)-exendin-4
EC50, CRE-luciferase reporter in HEK293 cells [4]: 0.009 nM
EC50, CRE-luciferase reporter in HEK293 cells [5]: 0.026 nM

EC50, luciferase reporter (FIG. 6) [6]: 0.0448 nM
Substance: trastuzumab(CDR3H) Leptin

EC50, luciferase reporter (FIG. 6) [6]: 0.055 nM
Substance: leptin (from UniProt P41159 22-167) (ligand)

EC50, CRE-luciferase reporter in HEK293 cells [2]: 5.8 nM
Substance: palivizumab fab(NH, GGGGS3)-relaxin2(9GS) and palivizumab light chain

Substance: palivizumab(NH, CEXGGGGS)-GLP2 (SEQ ID NO: 218) and palivizumab(L) (SEQ ID NO: 7)
EC50 [7]: 0.133 nM

Substance: palivizumab(NH, CEXGGGGS)-relaxin2(single) and palivizumab light chain
EC50, CRE-luciferase reporter in HEK293 cells [2]: 2.5 nM
EC50, CRE-luciferase reporter in HEK293 cells (FIG. 13) [2]: 2.5 nM
EC50, CRE-luciferase reporter in HEK293 cells (FIG. 13) [3]: 553 nM

Substance: palivizumab (NH, CEXGGGGG)-relaxin2(9GS) and palivizumab light chain
EC50, CRE-luciferase reporter in HEK293 cells [2]: 0.48 nM
